What was measured:
[1] = biological target: HIV-1 Env of strain 3817.v2.c59 (HIV-1)
[2] = biological target: HIV-1 Env of strain X1193_c1 (HIV-1)
[3] = biological target: HIV-1 Env of strain HIV-16845-2.22 (HIV-1)
[4] = biological target: HIV-1 Env of strain R2184.c04 (HIV-1)
[5] = biological target: HIV-1 Env of strain ZM53M.PB12 (HIV-1)
[6] = biological target: HIV-1 Env of strain 1056_10_TA11_1826 (HIV-1)
[7] = biological target: HIV-1 Env of strain RHPA4259.7 (HIV-1)
[8] = biological target: HIV-1 Env of strain 6545.v4.c1 (HIV-1)
[9] = biological target: HIV-1 Env of strain 6480.v4.c25 (HIV-1)
[10] = biological target: HIV-1 Env of strain 3016.v5.c45 (HIV-1)
[11] = biological target: HIV-1 Env of strain 1006_11_C3_1601 (HIV-1)
[12] = biological target: HIV-1 Env of strain 6535.3 (HIV-1)
[13] = biological target: HIV-1 Env of strain Q842.d12 (HIV-1)
[14] = biological target: HIV-1 Env of strain 928-28 (HIV-1)
[15] = biological target: HIV-1 Env of strain Ce2060_G9 (HIV-1)
[16] = biological target: HIV-1 Env of strain 3415.v1.c1 (HIV-1)
[17] = biological target: HIV-1 Env of strain Du156.12 (HIV-1)
[18] = biological target: HIV-1 Env of strain X2131_C1_B5 (HIV-1)
[19] = biological target: HIV-1 Env of strain Du172.17 (HIV-1)
[20] = biological target: HIV-1 Env of strain T251-18 (HIV-1)
[21] = biological target: HIV-1 Env of strain 6811.v7.c18 (HIV-1)
[22] = biological target: HIV-1 Env of strain C3347.c11 (HIV-1)
[23] = biological target: HIV-1 Env of strain Du422.1 (HIV-1)
[24] = biological target: HIV-1 Env of strain T255-34 (HIV-1)
[25] = biological target: HIV-1 Env of strain PVO.4 (HIV-1)

NIH45-46 IgG (wild type) (antibody) showed an In vitro neutralization IC80 [1] greater than 50 µg/mL, an In vitro neutralization IC80 [2] of 0.064 µg/mL and an In vitro neutralization IC80 [3] of 22.6 µg/mL. The In vitro neutralization IC80 [4] was 0.127 µg/mL, the In vitro neutralization IC80 [5] was 0.61 µg/mL and the In vitro neutralization IC80 [6] was 0.447 µg/mL. The In vitro neutralization IC80 [7] was 0.047 µg/mL, the In vitro neutralization IC80 [8] was greater than 50 µg/mL and the In vitro neutralization IC80 [9] was 0.1 µg/mL. For the same substance, the In vitro neutralization IC80 [10] was greater than 50 µg/mL, the In vitro neutralization IC80 [11] was 0.196 µg/mL and the In vitro neutralization IC80 [12] was 0.54 µg/mL. It also gave an In vitro neutralization IC80 [13] of 0.073 µg/mL, an In vitro neutralization IC80 [14] of 0.64 µg/mL and an In vitro neutralization IC80 [15] of 0.29 µg/mL. It also gave an In vitro neutralization IC80 [16] of 0.086 µg/mL, an In vitro neutralization IC80 [17] of 0.054 µg/mL and an In vitro neutralization IC80 [18] of 0.88 µg/mL. For the same substance, the In vitro neutralization IC80 [19] was greater than 50 µg/mL, the In vitro neutralization IC80 [20] was 3.68 µg/mL and the In vitro neutralization IC80 [21] was 0.113 µg/mL. For the same substance, the In vitro neutralization IC80 [22] was 0.094 µg/mL, the In vitro neutralization IC80 [23] was greater than 50 µg/mL and the In vitro neutralization IC80 [24] was 3.44 µg/mL. The In vitro neutralization IC80 [25] was 0.41 µg/mL.
